For 131 substances, amyloid nucleation score results are on record in the supplement of paper PMC12042874.

± gives the uncertainty stated by the source.

This data set is described as follows: amyloid nucleation score (Sup35N fusion, yeast selection) (log enrichment); library NNK3; higher = more nucleation; inactive = no reads after selection. Summed up: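 After 24 hours of induction with 100 μM copper sulfate, psi-negative yeast expressing peptides of 20 random codons fused to Sup35N were grown for 7 days at 30°C on medium lacking adenine and uracil. Input and output plasmid inserts were sequenced with Illumina, and sequences with under 100 input reads were discarded. Scores for nucleation are the DiMSum log enrichment of output over input reads, centred on the mode score of non-aggregating sequences.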
As for PSVPSNHLDCYLTWGT, the amyloid nucleation score entry is “inactive”. For the substance PSYFVI, the amyloid nucleation score result was “inactive”. For PTFNRAMTWYFKFLFHYAHD, the amyloid nucleation score result is “inactive”. Under PTGLGTAYQLNAWTASFG stands “inactive”.

With PTITMANKDRFLRRCSPNGG, the amyloid nucleation score entry was “inactive”. The value for PVFVCCRWHVVFGKNNGSAT was 1.47 ± 0.13. Under PVHGVGLAIRGSYGSYTGLL stands “inactive”; under PVKRVIYSRGYVQKCPLCP, “inactive”; under PVLGYAECIYKMYKSSQVSW, “inactive”. With PVSYVLEEVEPRVRVSGPSG, the amyloid nucleation score result is “inactive”.

The substance PVTFSCYNTLACIKLYYGNV returned an amyloid nucleation score of 2.56 ± 0.066.

PVWVKYIDYCPSRKHLSCRV: the amyloid nucleation score entry is “inactive”.

In the case of PVYVG, the amyloid nucleation score result is “inactive”. The substance PWGLGNSARCWCFFMGHCEA had an amyloid nucleation score of -0.889 ± 2.5. Regarding PWRRDKSGVVLSWDAISFAW, the amyloid nucleation score entry is “inactive”.

PYAILFNAWNLSAPMACSWV: the amyloid nucleation score result is “inactive”. As for PYFFSLRNPRI, the amyloid nucleation score entry is “inactive”. On to PYFFTDLICSFKIGAYEQGS, for which the amyloid nucleation score result is “inactive”. On to PYGNSELYSERGERAHCNLG, for which the amyloid nucleation score result is “inactive”.

Consider PYKNI, for which the amyloid nucleation score entry was “inactive”. As for PYMIEVLRSDVNHDCSHMKW, the amyloid nucleation score entry is “inactive”. Under PYRFLESTSRALYFTFSYTF stands “inactive”. Take PYRGSPACMGDYGNQVGNGS: the amyloid nucleation score entry was “inactive”.

In the case of PYRYLGARIRCMAKDSVSHI, the amyloid nucleation score entry is “inactive”. The value for QAGLSCD was “inactive”; that for QALGVGN was “inactive”. With QAQIYWM, the amyloid nucleation score entry was “inactive”.

As to QCRQVIENNRVLFVAIKWEN, the amyloid nucleation score amounted to 0.57 ± 0.58. For QCSMDRNT, the amyloid nucleation score result is “inactive”. The substance QCVVVKCCWRDNRWLGSDLV returned an amyloid nucleation score of -0.178 ± 0.54.

Consider QDFYFISILACGYIWH, for which the amyloid nucleation score entry is “inactive”. Under QDKMSMYTYMMR stands “inactive”; under QDLSYRVGLFWDRSIVLNWY, “inactive”; under QDYSELRVSKKKVVRVG, “inactive”. In the case of QEWKQWLMSWTSRKAFSLKS, the amyloid nucleation score result is “inactive”.

Regarding QFCSSYWYQGTAYCLLPIAT, the amyloid nucleation score entry was “inactive”. As to QFDKSNPWNSSSLMMPENGV, the amyloid nucleation score entry was “inactive”. Substance QFSNNSLKVRFMCVLYVVDR registered an amyloid nucleation score of -0.039 ± 0.37. Under QFVAFVYYVCLLWYTGALLI stands “inactive”; under QGLSGRRGYSDRY, “inactive”. For QGNCVNRIC, the amyloid nucleation score result was “inactive”. For QILLSLQIWRWWVNRII, the amyloid nucleation score result was “inactive”.

As for QIQGAGHGM, the amyloid nucleation score was determined as 0.534 ± 0.21.

Regarding QIYSFFIWIEKTGVCRWLWA, the amyloid nucleation score result was “inactive”. Under QKIPRDDEPMANQDRLSKIS stands “inactive”; under QKLVMTYPVIVHNMVNLERY, 1.13 ± 0.074.

Turning to QKMPSANDRLCISSFLYNLE, the amyloid nucleation score result was “inactive”. In the case of QKRIQFTSECTRKRNFWLFS, the amyloid nucleation score result was “inactive”.

For QKVYNFMWYLFQYIELVYMN, the amyloid nucleation score result was “inactive”. As for QLCVISWLGR, the amyloid nucleation score worked out at 1.14 ± 0.15. QLINWFRSDDLSLTAVKRKW: the amyloid nucleation score was 0.596 ± 0.19. For the substance QLSVNMYDCYDNGEHLRIGG, the amyloid nucleation score entry was “inactive”. For the substance QMRCLY, the amyloid nucleation score entry is “inactive”.

Regarding QMRYLFACFYT, the amyloid nucleation score entry was “inactive”. Take QNTGLYVN: the amyloid nucleation score entry was “inactive”. For QPLARRIGHISV, the amyloid nucleation score result is “inactive”. As for QQGFSVLERCISEV, the amyloid nucleation score entry was “inactive”. The value for QQHAVR was “inactive”. The value for QQKGHTYKLLYNGGRLYFPT was 0.29 ± 0.51; that for QQMGYGKADSMFTSLVVYTM was “inactive”.

Take QRCCP: the amyloid nucleation score result was “inactive”. In the case of QRKTYRTVEHGMHSSSNL, the amyloid nucleation score result was “inactive”. QSFGMFAVYRAWVSIL: the amyloid nucleation score entry is “inactive”. On to QSHIVSRGLAEENTW, for which the amyloid nucleation score result is “inactive”.

QSLHSYNRSESCSLGSSFWI: the amyloid nucleation score result is “inactive”.

Take QSLIEPSD: the amyloid nucleation score entry was “inactive”. The value for QSLRRQYLNYIRSIFESMEN was “inactive”; that for QSLSNKVMLLSGRVNQVDVA was -0.935 ± 1.5; that for QSSMLHL was “inactive”. QSYVSFYMQVLRSDRTDILR: the amyloid nucleation score entry was “inactive”. For QTCSNYLNTFRSRRDWLVKG, the amyloid nucleation score entry was “inactive”. QTMAAYLYSWNNTV: the amyloid nucleation score result was “inactive”. Take QTTLSYIVCMQSRQLRNRAW: the amyloid nucleation score is 0.848 ± 0.099.

Take QVCPTLWYEVMCLN: the amyloid nucleation score entry is “inactive”.

Turning to QVCYFYIIVLVLD, the amyloid nucleation score result is “inactive”. Turning to QVLASTNATESCRIDRDTVV, the amyloid nucleation score entry is “inactive”. Consider QVLQKVHG, for which the amyloid nucleation score entry was “inactive”. Consider QVVTSYGGSAVEDITAML, for which the amyloid nucleation score entry was “inactive”. In the case of QWKKWLDTACKWVGVGGTIR, the amyloid nucleation score entry is “inactive”. For the substance QYFHMTWSVIVYEIGVRPYI, the amyloid nucleation score is -0.449 ± 0.8. Consider QYVIIYEKQLGWRKFDFNSV, for which the amyloid nucleation score entry was “inactive”. Under QYVVSGMTYFWRYMRLVNVR stands “inactive”; under QYYFSYSINSRLITCALVQG, 0.214 ± 0.37. With RACHFQVIMCMICALCGFAS, the amyloid nucleation score was found to be 1.91 ± 0.079. For the substance RADFLPVKNVMRFRCEFWKR, the amyloid nucleation score result is “inactive”. Regarding RADPTRITSPSLLTIMKTHE, the amyloid nucleation score result was “inactive”.

In the case of RADSGGKCLLAELDGLSPYW, the amyloid nucleation score result was “inactive”.

Regarding RAHPALVWMIARTKSSSICL, the amyloid nucleation score result is “inactive”. Regarding RALKRFYNVIFYFRSYVPVS, the amyloid nucleation score entry is “inactive”. Consider RALMGLVIKPKMSNTNLLDY, for which the amyloid nucleation score entry was “inactive”. Under RANRQQGVGTKQREGHNTVG stands “inactive”; under RATKVDVRGGVA, -0.911 ± 1.5; under RAYGPGRSASEALGRLCVGL, “inactive”. Take RCAPFNFFPCHIWRYVLTRK: the amyloid nucleation score result was “inactive”.

In the case of RCCFWVMLFNYARGKRTWCH, the amyloid nucleation score result was “inactive”. As to RCDNKF, the amyloid nucleation score came to 1.2 ± 0.17. Regarding RCGEDNLQGSLSTSTVGNLV, the amyloid nucleation score entry is “inactive”. For the substance RCHYSSWWESPCQSVM, the amyloid nucleation score entry is “inactive”. In the case of RCLLYTAY, the amyloid nucleation score entry is “inactive”. On to RCMTHRTLAHENRFVHTRCW, for which the amyloid nucleation score entry is “inactive”. Consider RCPTPTWSINGPC, for which the amyloid nucleation score result is “inactive”.

RCRLSKANFRHWNKEVKWTF: the amyloid nucleation score result was “inactive”. For the substance RCRTDILYNFERHYLRVEYA, the amyloid nucleation score result is “inactive”. As to RCSCCCCNALANDRRVCMVE, the amyloid nucleation score result was “inactive”. As to RCSRWNWCVVAG, the amyloid nucleation score result was “inactive”. Take RCTVDVFMHCSKLSNAELSL: the amyloid nucleation score worked out at 0.833 ± 0.12. For the substance RDEASLSYMSPCRYDYCNCF, the amyloid nucleation score stood at 0.003 ± 1. Under RDGHIQMCFIWVKRDNCQVF stands “inactive”; under RDHSTMQTEVLEWSRNPSMG, “inactive”. With RDISGMLYCYEGFYVF, the amyloid nucleation score entry was “inactive”. For the substance RDMPLMGVYKIPVDAFYSVS, the amyloid nucleation score result was “inactive”. Take RDSFTVIVSSSSPMPKLVPE: the amyloid nucleation score result was “inactive”. RDTYMGREVCFNNTPERF displayed an amyloid nucleation score of 0.21 ± 0.77.

Turning to RDVCVHPNHFKCGAAMFPED, the amyloid nucleation score result was “inactive”. Take RDVTC: the amyloid nucleation score result was “inactive”.

Turning to RDYQCLQLYCRSASPIT, the amyloid nucleation score result was “inactive”.

In the case of RECVMETWSQVGRWFTCVRV, the amyloid nucleation score entry was “inactive”. For RELFTFGVFRYQASL, the amyloid nucleation score is 0.817 ± 0.22. As to RESDMRSAWGSDVVCLLGDS, the amyloid nucleation score came out at 1.11 ± 0.15.

As for RESNNLLFQQVGYLYYSWFY, the amyloid nucleation score turned out to be 1.86 ± 0.078. For the substance REVMWKICFRKINYVGYSGK, the amyloid nucleation score result is “inactive”.

With RFCRRVHMRLDAVGTCVRWW, the amyloid nucleation score result was “inactive”. For RFESHSL, the amyloid nucleation score entry was “inactive”. For the substance RFFHYYVSNVWTSNPFSTYI, the amyloid nucleation score was -0.42 ± 0.62. Under RFFSFFIT stands 2.44 ± 0.055. Turning to RFGITLVFEYPAVEFVDTTI, the amyloid nucleation score result was “inactive”. Turning to RFHDNFAAK, the amyloid nucleation score entry was “inactive”. With RFHSSLCCNMVWF, the amyloid nucleation score turned out to be 3.06 ± 0.06. For the substance RFKKVVHSFRFCAIENVLDY, the amyloid nucleation score entry is “inactive”.

With RFLRRIIDIVMGQSGNWMIR, the amyloid nucleation score entry was “inactive”. In the case of RFNGDQMYFNLSFKISELFP, the amyloid nucleation score is 1.09 ± 0.079.
